Data: paper PMC10696123 (iScience, 2023)

Tests used:
FleR 1-473 [1] = target: FleR 1-473 (UniProt Q9I4N3); test: small-angle X-ray scattering; details: reference: non-phosphorylated FleR D53A; sites D53
FleR 1-473 [2] = target: FleR 1-473 (UniProt Q9I4N3); test: dynamic light scattering; details: reference: wild type FleRFL, acetyl phosphate treated; sites D53
SAXS = target: the molecule itself; test: SAXS
cross-linking = target: the molecule itself; test: cross-linking

Molecule: FleR 1-473 (from UniProt Q9I4N3) acetyl phosphate-phosphorylated FleR S150F
- other: SAXS molecular mass (Bayesian inference) (FleR 1-473 [1]): stronger; reference 113650

Molecule: FleR 1-473 (from UniProt Q9I4N3) FleR D53A, acetyl phosphate treated
- other: hydrodynamic diameter (FleR 1-473 [2]): weaker; reference 23.17 ± 0.58

B1: FleR D53A, non-phosphorylated, full length (natural protein, Pseudomonas aeruginosa (PAO1 strain), UniProt Q9I4N3 1-473, looked up)
chain: MAAKVLLVEDDRALREALSDTLLLGGHEFVAVDSAEAALPVLAREAFSLVISAVNMPGMDGHQLLGLIRTRYPHLPVLLMTAYGAVDRAVEAMRQGAADYLVKPFEARALLDLVARHALGQLPGSEEDGPVALEPASRQLLELAARVARSDSTVLISGESGTGKEVLANYIHQQSPRAGKPFIAINCAAIPDNMLEATLFGHEKGSFTGAIAAQPGKFELADGGTILLDEISEMPLGLQAKLLRVLQEREVERVGARKPINLDIRVLATTNRDLAAEVAAGRFREDLYYRLSVFPLAWRPLRERPADILPLAERLLRKHSRKMNLGAVALGPEAAQCLVRHAWPGNVRELDNAIQRALILQQGGLIQPADLCLTAPIGMPLAAPVPVPMPAMPPATPPSVEIPSPAAGQDASGALGDDLRRREFQVIIDTLRTERGRRKEAAERLGISPRTLRYKLAQMRDAGMDVEAYLYAI
- stoichiometry N (SAXS): 2

B2: FleR S150F, full length, phosphorylated with acetyl phosphate (natural protein, Pseudomonas aeruginosa (PAO1 strain), UniProt Q9I4N3 1-473, looked up)
chain: MAAKVLLVEDDRALREALSDTLLLGGHEFVAVDSAEAALPVLAREAFSLVISDVNMPGMDGHQLLGLIRTRYPHLPVLLMTAYGAVDRAVEAMRQGAADYLVKPFEARALLDLVARHALGQLPGSEEDGPVALEPASRQLLELAARVARFDSTVLISGESGTGKEVLANYIHQQSPRAGKPFIAINCAAIPDNMLEATLFGHEKGSFTGAIAAQPGKFELADGGTILLDEISEMPLGLQAKLLRVLQEREVERVGARKPINLDIRVLATTNRDLAAEVAAGRFREDLYYRLSVFPLAWRPLRERPADILPLAERLLRKHSRKMNLGAVALGPEAAQCLVRHAWPGNVRELDNAIQRALILQQGGLIQPADLCLTAPIGMPLAAPVPVPMPAMPPATPPSVEIPSPAAGQDASGALGDDLRRREFQVIIDTLRTERGRRKEAAERLGISPRTLRYKLAQMRDAGMDVEAYLYAI
modifications: phosphorylated by acetyl phosphate (site D53)
- stoichiometry N (SAXS): 7

B3: DNA-binding domain of FleR (FleRDBD, residues 412-473) (domain or fragment, Pseudomonas aeruginosa (PAO1 strain), UniProt Q9I4N3 412-473, looked up)
chain: SGALGDDLRRREFQVIIDTLRTERGRRKEAAERLGISPRTLRYKLAQMRDAGMDVEAYLYAI
- stoichiometry N (cross-linking): 2
